Measurements: patent US20210277441A1, “METHOD OF SELECTING A POLYPEPTIDE OF INTEREST” (IMPERIAL COLLEGE INNOVATIONS LIMITED, priority 2018, published 2021)

Legend:
[1] = substrate: CC1=NCCC1; assay: Kinetics of parental MsIRED, 2-methylpyrroline reduction with NADPH; type: biochemical, Myxococcus stipitatus; details: other: cofactor NADPH (0.25 mM); enzyme 1.2 uM
[2] = substrate: CC1=NCCC1; assay: Kinetics of evolved MsIRED-s, 2-methylpyrroline reduction with NADH; type: biochemical, Myxococcus stipitatus; details: other: cofactor NADH (0.25 mM); enzyme 1.25 uM
[3] = substrate: CC(C)O; assay: purified protein, by the assay type; type: biochemical, Clostridium beijerinckii; details: other: cofactor NADP+ (1 mM); enzyme 110 nM

B1: Myxococcus stipitatus imine reductase (MsIRED), wild type, SEQ ID NO: 34 (Myxococcus stipitatus DSM 14675) (protein)
chain: MKPTLTVIGAGRMGSALIKAFLQSGYTTTVWNRTKAKSEPLAKLGAHLADTVRDAVKRSDIIVVNVLDYDTSDQLLRQDEVTRELRGKLLVQLTSGSPALAREQETWARQHGIDYLDGAIMATPDFIGQAECALLYSGSAALFEKHRAVLNVLGGATSHVGEDVGHASALDSALLFQMWGTLFGTLQALAISRAEGIPLEKTTAFIKLTEPVTQGAVADVLTRVQQNRLTADAQTLASLEAHNVAFQHLLALCEERNIHRGVADAMYSVIREAVKAGHGKDDFAILTRFLK
- Km [1]: 3.56 mM mM
- kcat [1]: 89.8 min-1 min-1

B2: Myxococcus stipitatus imine reductase (MsIRED) variant MsIRED-s (pLS133_1), N32E/R33V/T34R/K37R, SEQ ID NO: 35 (Myxococcus stipitatus DSM 14675; … (protein)
chain: MKPTLTVIGAGRMGSALIKAFLQSGYTTTVWEVRKARSEPLAKLGAHLADTVRDAVKRSDIIVVNVLDYDTSDQLLRQDEVTRELRGKLLVQLTSGSPALAREQETWARQHGIDYLDGAIMATPDFIGQAECALLYSGSAALFEKHRAVLNVLGGATSHVGEDVGHASALDSALLFQMWGTLFGTLQALAISRAEGIPLEKTTAFIKLTEPVTQGAVADVLTRVQQNRLTADAQTLASLEAHNVAFQHLLALCEERNIHRGVADAMYSVIREAVKAGHGKDDFAILTRFLK
- Km [2]: 19.57 mM mM
- kcat [2]: 78.1 min-1 min-1

B3: Clostridium beijerinckii alcohol dehydrogenase (CBADH), wild type, SEQ ID NO: 1 (Clostridium beijerinckii) (protein)
chain: MKGFAMLGINKLGWIEKERPVAGSYDAIVRPLAVSPCTSDIHTVFEGALGDRKNMILGHEAVGEVVEVGSEVKDFKPGDRVIVPCTTPDWRSLEVQAGFQQHSNGMLAGWKFSNFKDGVFGEYFHVNDADMNLAILPKDMPLENAVMITDMMTTGFHGAELADIQMGSSVVVIGIGAVGLMGIAGAKLRGAGRIIGVGSRPICVEAAKFYGATDILNYKNGHIVDQVMKLTNGKGVDRVIMAGGGSETLSQAVSMVKPGGIISNINYHGSGDALLIPRVEWGCGMAHKTIKGGLCPGGRLRAEMLRDMVVYNRVDLSKLVTHVYHGFDHIEEALLLMKDKPKDLIKAVVIL
- Km [3]: 5.80 mM mM
- kcat [3]: 1185.6 min-1 min-1
